The assay deals with purified HLA-DR4Dw4 (human). The experiment in a line: Test A: competition with biotin-FHA307-320 for purified HLA-DR4Dw4, ELISA read-out.

1 substance from patent US20020187934A1 can be followed below.

“Phv-Arg-Ala-IIb-Thr-Ala-Ala-Ala-Papa-NH2 (SEQ ID NO:1) (peptide)”: the concentration showing significant binding is under 0.1 µM.
